Experiments:
[1] = target: T1, human C4b (human) (UniProt P0C0L5)
T1 sequence: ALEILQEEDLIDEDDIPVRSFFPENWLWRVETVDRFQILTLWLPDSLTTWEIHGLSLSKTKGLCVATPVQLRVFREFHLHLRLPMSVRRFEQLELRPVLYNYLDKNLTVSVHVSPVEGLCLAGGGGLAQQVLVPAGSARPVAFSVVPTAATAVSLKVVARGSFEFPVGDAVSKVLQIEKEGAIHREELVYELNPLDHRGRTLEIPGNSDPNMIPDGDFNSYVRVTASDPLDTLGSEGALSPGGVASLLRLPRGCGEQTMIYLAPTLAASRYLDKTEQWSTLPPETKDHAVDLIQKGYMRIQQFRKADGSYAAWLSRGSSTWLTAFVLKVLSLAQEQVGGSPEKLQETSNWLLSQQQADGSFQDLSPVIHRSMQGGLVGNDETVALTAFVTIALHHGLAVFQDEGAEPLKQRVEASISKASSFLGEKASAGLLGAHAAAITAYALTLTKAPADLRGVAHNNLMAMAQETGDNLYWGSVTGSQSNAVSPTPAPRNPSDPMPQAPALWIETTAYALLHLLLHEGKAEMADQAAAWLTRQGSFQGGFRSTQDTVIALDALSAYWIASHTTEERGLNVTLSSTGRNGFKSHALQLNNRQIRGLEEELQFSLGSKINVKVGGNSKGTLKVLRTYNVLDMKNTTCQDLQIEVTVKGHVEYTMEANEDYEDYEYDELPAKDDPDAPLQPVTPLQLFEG

[2] = target: soluble human C3b (human) (UniProt P01024)

Substance	C4b Screen Ref Fold (fold vs CFI-HSA wild type) [1]	iC3b Screen Ref Fold (fold vs CFI-HSA wild type) [2]
CFI-HSA D549P (enzyme)	1.08	0.53
CFI-HSA D549Q (enzyme)	1.1	0.84
CFI-HSA D549R (enzyme)	0.52	0.27
CFI-HSA D549T (enzyme)	1.05	1.09
CFI-HSA D549V (enzyme)	0.07	0.46
CFI-HSA D549W (enzyme)	0.25	0.68
CFI-HSA D549Y (enzyme)	0.08	0.42
CFI-HSA E401G (enzyme)	0.82	2.1
CFI-HSA E457G; D425R; E530Y (enzyme)	4.29	1.73
CFI-HSA E457G; E461Q; F464Y; N531G; GGSSGG (SEQ ID NO: 6); CR1 (ccp15-17) (from UniProt P17927) (enzyme)	4.44	0.13
CFI-HSA E457G; E461Q; N531G; GGSSGG (SEQ ID NO: 6); CR1 (ccp15-17) (from UniProt P17927) (enzyme)	4.82	0.12
CFI-HSA E457G; E461Q; R557A (enzyme)	4.5	1.29
CFI-HSA E457G; E461Q; R557K (enzyme)	4.28	1.81
CFI-HSA E457G; E530Y (enzyme)	2.48	2.03
CFI-HSA E457G; N531G; D425R; E530Y (enzyme)	5.37	0.78
CFI-HSA E457G; N531G; E461Q; R462K; F464Y; E530Y (enzyme)	5.7	1.83
CFI-HSA E457G; N531G; E461Q; R462K; F464Y; E530Y; GGSSGG (SEQ ID NO: 6); CR1(ccp15-17) (from UniProt P17927) (enzyme)	2.87	0.01
CFI-HSA E457G; N531G; E461Q; R462K; F464Y; GGSSGG (SEQ ID NO: 6); CR1 (ccp1-3) (from UniProt P17927) (enzyme)	0.46	0.14
CFI-HSA E457G; N531G; E461Q; R462K; F464Y; GGSSGG (SEQ ID NO: 6); CR1 (ccp15-17) (from UniProt P17927) (enzyme)	4.36	0.1

Substance	C4b Screen Ref Fold (fold vs CFI-HSA wild type) [1]	iC3b Screen Ref Fold (fold vs CFI-HSA wild type) [2]
CFI-HSA E457G; N531G; E530Y (enzyme)	4.22	1.67
CFI-HSA F399G (enzyme)	0.05	0.65
CFI-HSA F537G (enzyme)	0.03	0.37
CFI-HSA H362G (enzyme)	0.03	-0.02
CFI-HSA H370G (enzyme)	0.13	0.52
CFI-HSA K368E (enzyme)	0.06	0.2
CFI-HSA K368G (enzyme)	0.24	0.16
CFI-HSA K423A (enzyme)	0.11	0.23
CFI-HSA K423D (enzyme)	0.31	0.33
CFI-HSA K423E (enzyme)	0.32	0.61
CFI-HSA K423G (enzyme)	0.15	0.69
CFI-HSA K424A (enzyme)	0.26	0.87
CFI-HSA K424D (enzyme)	0.27	1.15
CFI-HSA K424E (enzyme)	0.23	1.08
CFI-HSA K424F (enzyme)	0.35	1.04
CFI-HSA K424G (enzyme)	0.32	1.44
CFI-HSA K424H (enzyme)	0.53	1.46
CFI-HSA K424I (enzyme)	0.28	1.48
CFI-HSA K424L (enzyme)	0.28	0.91

Substance	C4b Screen Ref Fold (fold vs CFI-HSA wild type) [1]	iC3b Screen Ref Fold (fold vs CFI-HSA wild type) [2]
CFI-HSA K424M (enzyme)	0.33	0.95
CFI-HSA K424N (enzyme)	0.5	1.48
CFI-HSA K424P (enzyme)	0.33	1.05
CFI-HSA K424Q (enzyme)	0.47	1.27
CFI-HSA K424R (enzyme)	0.32	0.97
CFI-HSA K424S (enzyme)	-0.1	0.29
CFI-HSA K424T (enzyme)	0.03	0.13
CFI-HSA K424V (enzyme)	0.29	0.89
CFI-HSA K424W (enzyme)	0.25	1.52
CFI-HSA K424Y (enzyme)	0.42	0.95
CFI-HSA L73G (enzyme)	0.17	0.3
CFI-HSA L76G (enzyme)	0.07	0.5
CFI-HSA N531G; D425R; E530Y (enzyme)	2.71	2.05
CFI-HSA N531G; E457G; E461Q; R557A (enzyme)	4.46	0.93
CFI-HSA N531G; E457G; E461Q; R557K (enzyme)	4.69	1.81
CFI-HSA N531G; E457G; E461Q; ΔC-term (Δ558-PFISQYNV (SEQ ID NO: 14)-565) (enzyme)	3.57	0.5
CFI-HSA N531G; E530Y (enzyme)	3.41	2.48
CFI-HSA N531G; P535A; R557A (enzyme)	3.98	0.57

From patent US20230038638A1, “COMPLEMENT FACTOR I-RELATED COMPOSITIONS AND METHODS” (published 2023)
